Patent US10941182 (Amgen, dated 2021)
Starred links: 1 amine or outer side, 2 acyl side, 3 side chain; linkers in the order of their positions; H or OH if unused. Non-standard residues stand in square brackets, D forms with d. Primed or numbered codes have the meaning given here. No end group written: not given here. rhArg = homoarginine with ψ(CH2NH) reduced amide bond, N=C(N)NCCCC[C@@H](C[*:2])N[*:1]; rHis = histidine with ψ(CH2NH) reduced amide bond, c1nc(C[C@@H](C[*:2])N[*:1])c[nH]1; rLys = lysine with ψ(CH2NH) reduced amide bond, C(CC[C@@H](C[*:2])N[*:1])CN[*:3]; rSer = serine with ψ(CH2NH) reduced amide bond, C(O[*:3])[C@@H](C[*:2])N[*:1]; Oic = O=C(O)[C@@H]1C[C@@H]2CCCC[C@@H]2N1; Phe(4-Cl) = N[C@@H](Cc1ccc(Cl)cc1)C(=O)O; d1Nal = N[C@H](Cc1cccc2ccccc12)C(=O)O; d2Nal = N[C@H](Cc1ccc2ccccc2c1)C(=O)O; hArg = N=C(N)NCCCC[C@H](N)C(=O)O; Cha = N[C@@H](CC1CCCCC1)C(=O)O; αMeL = CC(C)C[C@](C)(N)C(=O)O; β3hP = O=C(O)C[C@@H]1CCCN1; Nle = CCCC[C@H](N)C(=O)O; Orn = NCCC[C@H](N)C(=O)O; Pip′ = not defined here; Nlys = NCCCCNCC(=O)O; BLeu = β-leucine

B1: apelin polypeptide SEQ ID NO: 40 (peptide)
peptide: Ac-[Orn]F[hArg][hArg]Q[hArg]P[hArg][Cha]S[rHis]KG[Oic][Nle]P[Phe(4-Cl)]-OH
modifications: also: reduced amide bond (CH2NH) at residue 11
B2: apelin polypeptide SEQ ID NO: 43 (peptide)
peptide: Ac-[Orn]F[hArg][hArg]Q[hArg]P[hArg][Cha][rSer]HKG[Oic][Nle]P[Phe(4-Cl)]-OH
modifications: also: reduced amide bond at Ser10 (rSer)
B3: apelin polypeptide SEQ ID NO: 707 (peptide)
peptide: [Orn]F[hArg][hArg]Q[hArg]P[hArg][Cha]SHKG[Pip′][Nle]P[Phe(4-Cl)]
B4: apelin polypeptide SEQ ID NO: 34 (peptide)
peptide: Ac-[Orn]F[hArg][hArg]Q[hArg]P[hArg][αMeL]SHKG[Oic][Nle]P[Phe(4-Cl)]-OH
SMILES: CCCC[C@H](NC(=O)[C@@H]1C[C@@H]2CCCC[C@@H]2N1C(=O)CNC(=O)[C@H](CCCCN)NC(=O)[C@H](Cc1c[nH]cn1)NC(=O)[C@H](CO)NC(=O)[C@](C)(CC(C)C)NC(=O)[C@H](CCCCNC(=N)N)NC(=O)[C@@H]1CCCN1C(=O)[C@H](CCCCNC(=N)N)NC(=O)[C@H](CCC(N)=O)NC(=O)[C@H](CCCCNC(=N)N)NC(=O)[C@H](CCCCNC(=N)N)NC(=O)[C@H](Cc1ccccc1)NC(=O)[C@H](CCCN)NC(C)=O)C(=O)N1CCC[C@H]1C(=O)N[C@@H](Cc1ccc(Cl)cc1)C(=O)O
B5: apelin polypeptide SEQ ID NO: 39 (peptide)
peptide: Ac-[Orn]F[hArg][hArg]Q[hArg]P[rhArg][Cha]SHKG[Oic][Nle]P[Phe(4-Cl)]-OH
modifications: also: reduced amide bond (CH2NH) at residue 8
B6: apelin polypeptide SEQ ID NO: 711 (peptide)
peptide: [Orn]F[hArg][hArg]Q[hArg]P[hArg][Cha]SHKG[Oic][Nle][Pip′][Phe(4-Cl)]
B7: apelin polypeptide SEQ ID NO: 30 (peptide)
peptide: Ac-[Orn]F[hArg][hArg]Q[hArg]P[hArg][BLeu]SHKG[Oic][Nle]P[Phe(4-Cl)]-OH
B8: apelin polypeptide SEQ ID NO: 41 (peptide)
peptide: Ac-[Orn]F[hArg][hArg]Q[hArg]P[hArg][Cha]SH[rLys]G[Oic][Nle]P[Phe(4-Cl)]-OH
modifications: also: reduced amide bond (CH2NH) at residue 12
B9: apelin polypeptide SEQ ID NO: 32 (peptide)
peptide: Ac-[Orn]F[hArg][hArg]Q[hArg]P[hArg][Cha]SH[Nlys]G[Oic][Nle]P[Phe(4-Cl)]-OH
B10: apelin polypeptide SEQ ID NO: 713 (peptide)
peptide: [Orn]F[hArg][hArg]Q[hArg]P[hArg][Cha]SHKG[Oic][Nle][d2Nal]
B11: apelin polypeptide SEQ ID NO: 709 (peptide)
peptide: [Orn]F[hArg][hArg]Q[hArg]P[hArg][Cha]SHKG[Oic][Nle][β3hP][Phe(4-Cl)]
B12: apelin polypeptide SEQ ID NO: 712 (peptide)
peptide: [Orn]F[hArg][hArg]Q[hArg]P[hArg][Cha]SHKG[Oic][Nle][d1Nal]

target: T1, rat APJ receptor (rat, UniProt Q9JHG3 1-377); assay: cell-based or functional assay
T1 sequence (looked up): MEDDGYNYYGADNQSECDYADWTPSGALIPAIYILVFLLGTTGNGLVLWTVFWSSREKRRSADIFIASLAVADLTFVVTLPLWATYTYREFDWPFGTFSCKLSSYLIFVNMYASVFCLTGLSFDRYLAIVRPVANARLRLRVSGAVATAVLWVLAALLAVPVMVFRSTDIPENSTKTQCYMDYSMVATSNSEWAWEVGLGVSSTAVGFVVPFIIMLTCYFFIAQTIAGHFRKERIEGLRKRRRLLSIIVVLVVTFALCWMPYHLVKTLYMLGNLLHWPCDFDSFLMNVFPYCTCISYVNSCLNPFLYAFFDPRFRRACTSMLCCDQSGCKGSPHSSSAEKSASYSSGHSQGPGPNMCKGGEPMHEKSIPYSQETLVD

**Q.** For B1, which “EC50 Rat APJ Receptor” value is on record?
**A.** The value was 1.45 nM.

**Q.** With B2 as the binder, how does the “EC50 Rat APJ Receptor” value read?
**A.** Its value is 1.83 nM.

**Q.** With B3 as the binder, how does the “EC50 Rat APJ Receptor” value read?
**A.** Its value is 0.471 nM.

**Q.** With B4 as the binder, how does the “EC50 Rat APJ Receptor” value read?
**A.** Its value is 0.193 nM.

**Q.** With B5 as the binder, how does the “EC50 Rat APJ Receptor” value read?
**A.** The value was 0.323 nM.

**Q.** How did the “EC50 Rat APJ Receptor” value turn out when B6 was run?
**A.** Its value is 0.351 nM.

**Q.** B7 was tested. Which “EC50 Rat APJ Receptor” value did it give?
**A.** Its value is 0.456 nM.

**Q.** With B8 as the binder, how does the “EC50 Rat APJ Receptor” value read?
**A.** Its value is 0.817 nM.

**Q.** For B9, which “EC50 Rat APJ Receptor” value is on record?
**A.** The value was 1.51 nM.

**Q.** Which “EC50 Rat APJ Receptor” value does the source give for B10 here?
**A.** Its value is 1.14 nM.

**Q.** B11 was tested. Which “EC50 Rat APJ Receptor” value did it give?
**A.** Its value is 0.862 nM.

**Q.** B12 was tested. Which “EC50 Rat APJ Receptor” value did it give?
**A.** The value was 0.821 nM.

target: T2, human APJ receptor (human, UniProt P35414 1-380); assay: cell-based or functional assay
T2 sequence (looked up): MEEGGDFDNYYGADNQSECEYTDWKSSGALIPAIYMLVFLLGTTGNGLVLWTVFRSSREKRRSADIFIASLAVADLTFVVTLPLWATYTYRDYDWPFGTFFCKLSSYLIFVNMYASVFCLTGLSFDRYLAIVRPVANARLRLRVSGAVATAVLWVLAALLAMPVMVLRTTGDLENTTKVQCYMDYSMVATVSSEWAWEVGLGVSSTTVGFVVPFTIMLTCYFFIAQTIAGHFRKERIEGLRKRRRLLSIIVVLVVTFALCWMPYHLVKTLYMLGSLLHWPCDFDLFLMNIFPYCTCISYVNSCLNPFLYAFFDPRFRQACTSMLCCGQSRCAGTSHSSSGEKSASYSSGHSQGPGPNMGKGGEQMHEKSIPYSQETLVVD

**Q.** With B1 as the binder, how does the “EC50 Human APJ Receptor” value read?
**A.** Its value is 0.234 nM.

**Q.** With B2 as the binder, how does the “EC50 Human APJ Receptor” value read?
**A.** Its value is 0.393 nM.

**Q.** How did the “EC50 Human APJ Receptor” value turn out when B3 was run?
**A.** Its value is 0.294 nM.

**Q.** For B4, which “EC50 Human APJ Receptor” value is on record?
**A.** The value was 0.0519 nM.

**Q.** With B5 as the binder, how does the “EC50 Human APJ Receptor” value read?
**A.** Its value is 0.253 nM.

**Q.** With B6 as the binder, how does the “EC50 Human APJ Receptor” value read?
**A.** The value was 0.229 nM.

**Q.** Which “EC50 Human APJ Receptor” value does the source give for B7 here?
**A.** Its value is 0.166 nM.

**Q.** With B8 as the binder, how does the “EC50 Human APJ Receptor” value read?
**A.** The value was 0.151 nM.

**Q.** With B9 as the binder, how does the “EC50 Human APJ Receptor” value read?
**A.** The value was 0.25 nM.

**Q.** With B10 as the binder, how does the “EC50 Human APJ Receptor” value read?
**A.** The value was 1.54 nM.

**Q.** B11 was tested. Which “EC50 Human APJ Receptor” value did it give?
**A.** The value was 0.555 nM.

**Q.** With B12 as the binder, how does the “EC50 Human APJ Receptor” value read?
**A.** The value was 0.654 nM.
